Experimental data reported in the supplement of paper PMC12783771.
± gives the standard deviation of the averaged measurements.

B1: library; numbered along this chain (parent)
chain: MNIQIGELAKRTACPVVTIRFYEQEGLLPPPGRSRGNFRLYGEEHVERLQFIRHCRSLDMPLSDVRTLLSYRKRPDQDCGEVNMLLDEHIRQVESRIGALLELKHHLVELREACSGARPAQSCGILQGLSDCVCDTRGTTAHPSD

Tests used:
[1] = variants of: B1; assay: sfGFP reporter fluorescence (15 h) (µM FITC); higher = higher leak; details: library round: Round 1; ligand: none
Outline: (§1)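 With 1 µM lead chloride, 30 µM zinc acetate or no metal present, 1 μL Echo-assembled reactions were incubated 15 hr at 30 °C. They contained BL21 Star (DE3) PANOx-SP extract, 30 μg/mL GamS, the pPbrR-sfGFP reporter plasmid and PCR-made linear PbrR templates Echo-normalized to 5 nM. Endpoint sfGFP fluorescence was read on a Synergy Neo2 at 485/528 nm against FITC standards in 50 mM sodium borate pH 8.5. Results are expressed as µM FITC.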

[2] = variants of: B1; assay: sfGFP reporter fluorescence (15 h) (µM FITC); higher = stronger transcriptional activation; details: library round: Round 1
Outline: as §1

Variant	sfGFP reporter fluorescence [1]	sfGFP reporter fluorescence ([2]; ligand: 1 µM Pb)	sfGFP reporter fluorescence ([2]; ligand: 30 µM Zn)
MNIQIGELAKRTACPVVTIRFYEQEGLLPPPGRSRGNFRLYGEEHVERLQFIRHCRSLDMPLSDVRTLLSYRKRPDQDCGEVNMLLDEHIRQVESRIGALLELKHHLVELREACSGARPAQSCGILQGLSDCVCASRGTTAHPSD [D135A T136S]	0.065 ± 0.00085	0.0751 ± 0.0085	0.424 ± 0.047
MNIQIGELAKRTACPVVTIRFYEQEGLLPPPGRSRGNFRLYGEEHVERLQFIRHCRSLDMPLSDVRTLLSYRKRPDQDCGEVNMLLDEHIRQVESRIGALLELKHHLVELREACSGARPAQSCGILQGLSDCVCDTRGTTACASD [H142C P143A]	0.0676 ± 0.0022	0.0772 ± 0.0027	0.384 ± 0.03
MNIQIGELAKRTACPVVTIRFYEQEGLLPPPGRSRGNFRLYGEEHVERLQFIRHCRSLDMPLSDVRTLLSYRKRPDQDCGEVNMLLDEHIRQVESRIGALLELKHHLVELREACSGARPAQSCGILQGLSDCVCRTRGTTAHASD [D135R P143A]	0.0577 ± 0.0043	0.0707 ± 0.0053	0.317 ± 0.04
MNIQIGELAKRTACPVVTIRFYEQEGLLPPPGRSRGNFRLYGEEHVERLQFIRHCRSLDMPLSDVRTLLSYRKRPDQDCGEVNMLLDEHIRQVESRIGALLELKHHLVELREACSGARPAQSCGILQGLSDCVCSTRGTTAHWSD [D135S P143W]	0.0694 ± 0.00085	0.0798 ± 0.0084	0.355 ± 0.051
MNIQIGELAKRTACPVVTIRFYEQEGLLPPPGRSRGNFRLYGEEHVERLQFIRHCRSLDMPLSDVRTLLSYRKRPDQDCGEVNMLLDEHIRQVESRIGALLELKHHLVELREACSGARPAQSCGILQGLSTCPCDTRGTTAHPSD [D131T V133P]	0.0641 ± 0.0013	0.0767 ± 0.0042	0.395 ± 0.036
MNIQIGELAKRTACPVVTIRFYEQEGLLPPPGRSRGNFRLYGEEHVERLQFIRHCRSLDMPLSDVRTLLSYRKRPDQDCGEVNMLLDEHIRQVESRIGALLELKHHLVELREACSGARPAQSCGILQGLSTCVCYTRGTTAHPSD [D131T D135Y]	0.074 ± 0.0013	0.0933 ± 0.014	0.801 ± 0.026
MNIQIGELAKRTACPVVTIRFYEQEGLLPPPGRSRGNFRLYGEEHVERLQFIRHCRSLDMPLSDVRTLLSYRKRPDQDCGEVNMLLDEHIRQVESRIGALLELKHHLVELREACSGARPAQSCGILQGLSYCVCPTRGTTAHPSD [D131Y D135P]	0.0677 ± 0.0011	0.0826 ± 0.0037	0.272 ± 0.021
MNIQIGELAKRTACPVVTIRFYEQEGLLPPPGRSRGNFRLYGEEHVERLQFIRHCRSLDMPLSDVRTLLSYRKRPDQDCGEVNMLLDEHIRQVESRIGALLELKHHLVELREACSGARPAQSCGILQGLSYCVCATRGTTAHPSD [D131Y D135A]	0.0654 ± 0.0021	0.1 ± 0.0045	1.61 ± 0.27
MNIQIGELAKRTACPVVTIRFYEQEGLLPPPGRSRGNFRLYGEEHVERLQFIRHCRSLDMPLSDVRTLLSYRKRPDQDCGEVNMLLDEHIRQVESRIGALLELKHHLVELREACSGARPAQSCGILQGLSDCVCATRGTTAHFSD [D135A P143F]	0.0621 ± 0.0018	0.0718 ± 0.0013	0.299 ± 0.028
MNIQIGELAKRTACPVVTIRFYEQEGLLPPPGRSRGNFRLYGEEHVERLQFIRHCRSLDMPLSDVRTLLSYRKRPDQDCGEVNMLLDEHIRQVESRIGALLELKHHLVELREACSGARPAQSCGILQGLSDCVCATRGTTAHYSD [D135A P143Y]	0.0639 ± 0.0033	0.0797 ± 0.0033	0.361 ± 0.028
MNIQIGELAKRTACPVVTIRFYEQEGLLPPPGRSRGNFRLYGEEHVERLQFIRHCRSLDMPLSDVRTLLSYRKRPDQDCGEVNMLLDEHIRQVESRIGALLELKHHLVELREACSGARPAQSCGILQGLSDCVCATRGTTAHASD [D135A P143A]	0.0645 ± 0.0011	0.0761 ± 0.0051	0.423 ± 0.016
MNIQIGELAKRTACPVVTIRFYEQEGLLPPPGRSRGNFRLYGEEHVERLQFIRHCRSLDMPLSDVRTLLSYRKRPDQDCGEVNMLLDEHIRQVESRIGALLELKHHLVELREACSGARPAQSCGILQGLSDCVCATRGTTAHTSD [D135A P143T]	0.063 ± 0.0013	0.07562 ± 0.00042	0.374 ± 0.028
MNIQIGELAKRTACPVVTIRFYEQEGLLPPPGRSRGNFRLYGEEHVERLQFIRHCRSLDMPLSDVRTLLSYRKRPDQDCGEVNMLLDEHIRQVESRIGALLELKHHLVELREACSGARPAQSCGILQGLSDCVCATRGTTAHWSD [D135A P143W]	0.0683 ± 0.0014	0.0809 ± 0.0017	0.372 ± 0.0075
MNIQIGELAKRTACPVVTIRFYEQEGLLPPPGRSRGNFRLYGEEHVERLQFIRHCRSLDMPLSDVRTLLSYRKRPDQDCGEVNMLLDEHIRQVESRIGALLELKHHLVELREACSGARPAQSCGILQGLSDCVCATRGTTAHMSD [D135A P143M]	0.0655 ± 0.002	0.07977 ± 0.00056	0.405 ± 0.014
